Measured values reported in patent US20170224833A1, “SELF-ASSEMBLING MOLECULES THAT ACCUMULATE IN ACIDIC TUMOR MICROENVIRONMENTS” (OHIO STATE INNOVATION FOUNDATION, priority 2014, published 2017).
Each block holds one molecule with its values, some of them ahead of it. Residues, ends and D or L forms follow the SMILES beside them. *: point of attachment. Palmitoyl = CCCCCCCCCCCCCCCC(=O)*

Tests used:
[1] = Circular dichroism (CD) spectroscopy of pH-triggered self-assembly transition in 150 mM NaCl, 2.2 mM CaCl2; type: physicochemical; settings: for CD Transition pH: random coil to β-sheet; for secondary structure by CD: irrespective of concentration and pH (pH 5-10)
Procedure: The target PA concentration (10 μM) was below the detectable limit of conventional techniques to determine the morphology such as cryoTEM and small-angle X-ray scattering. Consequently, circular dichroism (CD) spectroscopy was initially used to characterize the morphology of these PAs at various pH values. PA1 was the first molecule synthesized that underwent a self-assembly transition in the desired pH range of 6.6-7.4 at 10 μM PA concentration, in 150 mM NaCl and 2.2 mM CaCl2 (FIG. 2A) (Goldberger, J. E., et al. Angew. Chem. Int. Ed. 2011 50:6292-95). […] The transition pH from random coil to β-sheet occurred at a pH of 6.6. The transition pH was defined as the value at which the ellipticity at 205 nm rises to zero, followed by the appearance of a minimum at 218-220 nm.
Measurements were done on a Jasco-815 Circular Dichroism spectrometer using 1 cm path length quartz cuvettes. 10 μM solutions of peptide amphiphiles were prepared in 150 mM NaCl and 2.2 mM CaCl2 by dilution from a concentrated PA stock (0.5-1 mM, pH 9). Double de-ionized Milli-Q water was used for preparing all solutions. The solutions were then heated at 80° C. for 30 minutes in a water bath and gradually cooled to room temperature. An Accumet XL15 pH meter (Fisher Scientific) coupled with an Orion Ross Ultra semi-micro electrode (8103BNUWP, Thermo Scientific) was used to adjust the pH of the solution to the desired value followed by collection of the CD spectra Each trace shown was averaged over 3 accumulations and was baseline subtracted using aqueous solutions containing salts only. All spectra are cut-off below 205 nm due to absorption by NaCl and CaCl2.
Measurements were done on a Jasco-815 Circular Dichroism spectrometer using 0.5-1 cm path length quartz cuvettes. 500-10 μM of either pure PA or PA mixtures were prepared in 150 mM NaCl and 2.2 mM CaCl2 (and 1.8 mM 20 kDa PEG in select samples) by dilution from a concentrated PA stock (0.5-1 mM, pH 9). Double de-ionized Milli-Q water was used for preparing all solutions. The solutions were then heated at 80° C. for 30 minutes in a water bath and gradually cooled to room temperature. An Accumet XL15 pH meter (Fisher Scientific) coupled with an Orion Ross Ultra semi-micro electrode (8103BNUWP, Thermo Scientific) was used to adjust the pH of the solution to the desired value followed by collection of the CD spectra. Each trace shown was averaged over 3 accumulations and was baseline subtracted using aqueous solutions containing salts only. All spectra are cut-off below 200 nm due to absorption by NaCl and CaCl2. The same procedure was followed for the salt control samples with 3.0 and 4.0 mM CaCl2.
Self-assembly behavior is known to be extremely sensitive to minor changes in monomer structure and presence of impurities. […] CAC measurements via the pyrene 1:3 method (Das, D. et al. J. Colloid Interface Sci. 2008, 327:198) were used to ascertain the single molecule to spherical micelle transitions at varying pH values (FIGS. 24A-24C). CD Spectroscopy was used to determine the pH points at which different concentrations (10-500 μM) of the PA molecules transitioned from a random coil to a β-sheet secondary structure (FIGS. 25A-25C). It has been previously shown that the random coil and β-sheet structures correspond to spherical micellar/isolated molecule and nanofiber morphologies respectively (Ghosh, A. et al. J. Am. Chem. Soc. 2012, 134:3647). The CD transition point was defined to be the pH value at which the ellipticity at 200 nm rose from a negative value (random coil) to zero accompanied by the appearance of a minimum at 218-220 nm. The addition of PA66 shifted the CD transition pH to more basic values by ˜0.6 pH units. […] This ˜0.6 pH shift in CD transition pH to more basic values were also observed when 1.5% of PA67 was added to PA65. […]

[2] = Transmission electron microscopy (TEM) of self-assembled morphology; type: physicochemical; settings: for average diameter of isolated nanofibers: 0.5 mM; for fiber diameter: pH 8.0 (100 μM, FIG. 40)
Procedure: TEM images were obtained using solutions of either 10 μM or 0.5 mM peptide amphiphile concentration, as well as 150 mM NaCl and 2.2 mM CaCl2 in Milli-Q water. The solutions were first heated at 80° C. for 30 minutes in a water bath and then gradually cooled to room temperature. This was followed by pH adjustment using either HCl or NaOH. 5 μL of this solution was pipetted onto a Carbon Formvar grid (Electron Microscopy Sciences) and allowed to sit for 2 minutes before being wicked dry using filter paper. For the 10 μM experiments that were performed to determine the time dependence of nanofiber formation, solutions were dropcast onto the grid within three minutes of pH adjustment. The samples were then negatively stained using 1 wt % uranyl acetate and imaged under a FEI Tecnai G2 Bio TWIN TEM system, operating at 100 kV. All TEM experiments were performed in triplicate, using at least three different freshly prepared solutions and grids. […]
TEM images were obtained at various concentrations and pH values, with 150 mM NaCl and 2.2 mM CaCl2 in deionized water. Solutions were heated at 80° C. for 30 minutes and gradually cooled to room temperature. Following temperature equilibration, pH adjustment was achieved using HCl or NaOH. 5 μL of this solution was pipetted onto a Carbon Formvar grid (Electron Microscopy Sciences) and allowed to sit for 2 minutes before being wicked dry using filter paper strips. The samples were negatively stained with 1 wt % uranyl acetate and imaged under a FEI Tecnai G2 Bio TWIN TEM system operating at 100 kV.
Transmission electron microscopy was employed to confirm the self-assembled morphology at different pH values and concentrations. The sample to be tested was basified to a pH of 10, stirred at 90° C. in an oil bath for 30 minutes and cooled to room temperature. The pH was then adjusted with HCl and NaOH to set the peptide solution (in 150 mM NaCl and 2.2 mM CaCl2) to a pH of either 5 or 9. Once the desired pH was reached, 5 μL of the sample was placed and spread onto a Carbon Formvar grid (Electron Microscopy Sciences) and allowed to sit for one minute before being wicked dry with filter paper. A 1 wt % uranyl acetate solution was added and spread over the grid to negatively stain the sample, and was wicked dry immediately after application. The grid was then examined by a FEI Tecnai G2 Biotwin TEM at 100 keV. The diameters of each self-assembled morphology was determined via averaging at least 30 different objects.

[3] = 10 μM PA, 150 mM NaCl, 2.2 mM CaCl2

pH above which CD shows superimposable random coil morphology [1, 3]: 6.82
CD Transition pH [1, 3]: 6.6
transition between random coil and β-sheet structure (reversibility) ([1]; 10 μM, pH switched between 7.75 and 6.1, three cycles): rapid and reversible
pH transition point at 10 μm PA ([1]; basic to acidic transition from small molecule to cylindrical nanofiber, simulated serum environment): 6.6
average diameter of isolated fibers ([2]; 10 μM, pH 6): 9.1±1.5 nm
average length of isolated fibers ([2]; 10 μM, pH 6, grids within three minutes of pH adjustment): 590±200 nm
fibers observed by TEM ([2]; 10 μM, pH 8): no fibers were present
average diameter of isolated nanofibers ([2]; pH 6.0): 9.4±1.1 nm
average diameter of isolated nanofibers ([2]; pH 10.0): 9.5±1.2 nm
Molecule: CCCCCCCCCCCCCCCC(=O)N[C@H](C(=O)N[C@@H](C)C(=O)N[C@@H](C)C(=O)N[C@@H](C)C(=O)N[C@@H](CCC(=O)O)C(=O)N[C@@H](CCC(=O)O)C(=O)N[C@@H](CCC(=O)O)C(=O)N[C@@H](CCC(=O)O)C(N)=O)[C@@H](C)CC [PA1] (Palmitoyl-IAAAEEEE-NH2)
time required to achieve the expected morphology after pH change ([1]; 10 μM, 150 mM NaCl, 2.2 mM CaCl2): three minutes or less

morphology by CD ([1]; 8.4 μM and above): formed nanofibers across all pH values
nanofiber diameter ([2]; 100 μM, pH 5.0 and 8.3): 9.5±0.8 nm
Molecule: CCCCCCCCCCCCCCCC(=O)N[C@@H](C)C(=O)N[C@H](C(=O)N[C@@H](C)C(=O)N[C@@H](C)C(=O)N[C@@H](CCC(=O)O)C(=O)N[C@@H](CCC(=O)O)C(=O)N[C@@H](CCC(=O)O)C(=O)N[C@@H](CCC(=O)O)C(N)=O)[C@@H](C)CC [PA68] (Palmitoyl-AIAAEEEE-NH2)

Molecule: Palmitoyl-AAAIEEEE-NH2 (SMILES CCCCCCCCCCCCCCCC(=O)N[C@@H](C)C(=O)N[C@@H](C)C(=O)N[C@@H](C)C(=O)N[C@H](C(=O)N[C@@H](CCC(=O)O)C(=O)N[C@@H](CCC(=O)O)C(=O)N[C@@H](CCC(=O)O)C(=O)N[C@@H](CCC(=O)O)C(N)=O)[C@@H](C)CC) [PA70]
secondary structure by CD [1]: β-sheet secondary structure regardless of concentration and pH
fiber diameter [2]: ~9.0±0.8 nm

Molecule: Palmitoyl-AIAAEEEEK(DO3A:Gd)-NH2 (Palmitoyl-AIAAEEEEK(DO3A)-NH2; also: DO3A chelates Gd) [PA71]
secondary structure by CD [1]: exclusively 3-sheet formation irrespective of concentration and pH
nanofiber length ([2]; pH 6.6, 150 μM): > 1 μm
nanofiber width ([2]; pH 6.6, 150 μM): ~11.3±1.1 nm
fiber diameter [2]: ~9.6±0.5 nm

Molecule: Palmitoyl-IAAAEEEEK(DO3A:Gd)-NH2 (Palmitoyl-IAAAEEEEK(DO3A)-NH2; also: DO3A chelates Gd) [PA5]
CD Transition pH [1, 3]: 5.7
nanofiber to micelle transition pH ([1]; 20 μM PA): 5.7
nanofiber to micelle transition pH ([1]; 0.5 mM PA): 6.0
pH transition point at 10 μm PA ([1]; basic to acidic transition from spherical micelle to cylindrical fiber, simulated serum environment (150 mM NaC, 2.2 mM CaCl2)): 5.7
nanofiber diameter ([2]; 0.5 mM PA, pH 4): 11.9±1.6 nm
spherical micelle diameter ([2]; 0.5 mM PA, pH 10): 10.0±1.2 nm

Molecule: palmitoyl-YYAAEEEEEK(DO3A:Gd)-NH2 (Palmitoyl-YYAAEEEEEK(DO3A)-NH2; also: DO3A chelates Gd) [PA74]
pH below which nanofibers form (CD morphology transition) ([1]; 50 μM): 5.75
nanofiber diameter ([2]; FIG. 50: pH 5, PA74 500 μM, PA75 100 μM): 9.7+/−1.2 nm
morphology by TEM ([2]; pH 5, PA74 500 μM, PA75 100 μM): nanofiber morphology
morphology by TEM ([2]; pH 9, PA74 500 μM, PA75 100 μM): spherical micelle morphology
